For assay [1], the target named is 6631.V3.C10 (HIV-1).
In assay [2] the target is VRC01-resistant viruses.
The target in assay [3] is gp120 of X2088 (HIV-1 strain X2088.c9).
For assay [4], the target named is VRC01-resistant viruses. The assay can be described thus: cell-based or functional assay.
Assay [5] addresses 6631.V3.C10 (HIV-1). This is another data set of the same source.
Assay [6] deals with VRC01-resistant viruses. The source holds these as a separate data set.
The target in assay [7] is gp120 of X2088 (HIV-1 strain X2088.c9). The source holds these as a separate data set.
Assay [8] has as its target T250-4 (HIV-1).
The target of assay [9] is T250-4 (HIV-1). The source holds these as a separate data set.
Assay [10] deals with 6631.V3.C10 (HIV-1). This is another data set of the same source.
In assay [11] the target is T250-4 (HIV-1). The source holds these as a separate data set.
For assay [12], the target named is VRC01-resistant viruses. The source holds these as a separate data set.
In assay [13] the target is gp120 of X2088 (HIV-1 strain X2088.c9). The source holds these as a separate data set.
Assay [14] deals with VRC01-resistant viruses. The source holds these as a separate data set.

Like-named read-outs stand apart in the source and are kept apart here.

B1: N6 Y54GHC (antibody, V domains shown)
VH: RAHLVQSGTAMKKPGASVRVSCQTSGYTFTAHILFWFRQAPGRGLEWVGWIKPQGGAVNFGGGFRDRVTLTRDVYREIAYMDIRGLKPDDTAVYYCARDRSYGDSSWALDAWGQGTTVVVSA
VL: YIHVTQSPSSLSVSIGDRVTINCQTSQGVGSDLHWYQHKPGRAPKLLIHHTSSVEDGVPSRFSGSGFHTSFNLTISDLQADDIATYYCQVLQFFGRGSRLHIK
Consider B1, for which the neutralisation IC50 was found to be 0.396 µg/mL in the assay with 6631.V3.C10 (HIV-1) [1] and 0.728 µg/mL in assay [3]. The neutralisation median IC50 with VRC01-resistant viruses [2] was found to be 0.562 µg/mL. In the assay with VRC01-resistant viruses [4], this molecule came in with a fold decrease in neutralization (IC50 of antibody mutant/IC50 of antibody WT) of 32 fold.

B2: N6 VRC27FRH1 (antibody, V domains shown)
VH: SQRLVQSGPQVRKPGSSVRISCETSGYTFNAHILFWFRQAPGRGLEWVGWIKPQYGAVNFGGGFRDRVTLTRDVYREIAYMDIRGLKPDDTAVYYCARDRSYGDSSWALDAWGQGTTVVVSA
VL: YIHVTQSPSSLSVSIGDRVTINCQTSQGVGSDLHWYQHKPGRAPKLLIHHTSSVEDGVPSRFSGSGFHTSFNLTISDLQADDIATYYCQVLQFFGRGSRLHIK
As for B2, the values for the neutralisation IC50 (with 6631.V3.C10 (HIV-1) [5]; in [7]) were 0.561 µg/mL and 0.184 µg/mL, respectively. The molecule further registered a neutralisation median IC50 in the assay with VRC01-resistant viruses [6] of 0.373 µg/mL.

B3: N6 VRC07CDRH3 (antibody, V domains shown)
VH: RAHLVQSGTAMKKPGASVRVSCQTSGYTFTAHILFWFRQAPGRGLEWVGWIKPQYGAVNFGGGFRDRVTLTRDVYREIAYMDIRGLKPDDTAVYYCARGKYCTARDYYNWALDAWGQGTTVVVSA
VL: YIHVTQSPSSLSVSIGDRVTINCQTSQGVGSDLHWYQHKPGRAPKLLIHHTSSVEDGVPSRFSGSGFHTSFNLTISDLQADDIATYYCQVLQFFGRGSRLHIK
With B3, the neutralisation IC50 with 6631.V3.C10 (HIV-1) [1] and with T250-4 (HIV-1) [8] was above 50 µg/mL each time. In the assay with VRC01-resistant viruses [2], the neutralisation median IC50 is 48.2 µg/mL.

B4: N6 VRC27CDRH2 (antibody, V domains shown)
VH: RAHLVQSGTAMKKPGASVRVSCQTSGYTFTAHILFWFRQAPGRGLEWVGWIKPKFGAVNYAHSFQGRVTLTRDVYREIAYMDIRGLKPDDTAVYYCARDRSYGDSSWALDAWGQGTTVVVSA
VL: YIHVTQSPSSLSVSIGDRVTINCQTSQGVGSDLHWYQHKPGRAPKLLIHHTSSVEDGVPSRFSGSGFHTSFNLTISDLQADDIATYYCQVLQFFGRGSRLHIK
As for B4, the neutralisation IC50 with 6631.V3.C10 (HIV-1) [5] worked out at 1.17 µg/mL; with T250-4 (HIV-1) [9], 1.57 µg/mL. For the same molecule, the neutralisation median IC50 with VRC01-resistant viruses [6] worked out at 1.37 µg/mL. Also, the fold decrease in neutralization (IC50 of antibody mutant/IC50 of antibody WT) in the assay with VRC01-resistant viruses [4] worked out at 78 fold.

B5: VRC27 heavy chain with N6 light chain (antibody, V domains shown)
VH: QRLVQSGPQVRKPGSSVRISCETSGYTFNAYILHWFRQAPGRSFEWMGWIKPKFGAVNYAHSFQGRITLTRDIYRETAFLDLTGLRFDDTAVYYCARDRLYDGSSWRLDPWGQGTRVVVSS
VL: YIHVTQSPSSLSVSIGDRVTINCQTSQGVGSDLHWYQHKPGRAPKLLIHHTSSVEDGVPSRFSGSGFHTSFNLTISDLQADDIATYYCQVLQFFGRGSRLHIK
Consider B5, for which the neutralisation IC50 with 6631.V3.C10 (HIV-1) [10] is above 50 µg/mL; with T250-4 (HIV-1) [11], 23.1 µg/mL; in [13] it was above 50 µg/mL. Also, in the assay with VRC01-resistant viruses [12], the neutralisation fold change (IC50 original/IC50 combination) is 1 fold. In addition, the neutralisation median IC50 with VRC01-resistant viruses [12] is above 50 µg/mL.

B6: N6 VRC27FRH2 (antibody, V domains shown)
VH: RAHLVQSGTAMKKPGASVRVSCQTSGYTFTAHILFWFRQAPGRSFEWMGWIKPQYGAVNFGGGFRDRVTLTRDVYREIAYMDIRGLKPDDTAVYYCARDRSYGDSSWALDAWGQGTTVVVSA
VL: YIHVTQSPSSLSVSIGDRVTINCQTSQGVGSDLHWYQHKPGRAPKLLIHHTSSVEDGVPSRFSGSGFHTSFNLTISDLQADDIATYYCQVLQFFGRGSRLHIK
Molecule B6 had a neutralisation median IC50 with VRC01-resistant viruses [6] of 0.195 µg/mL. This molecule came in with a neutralisation IC50 in [7] of 0.143 µg/mL.

B7: N6 VRC08CDRH3 (antibody, V domains shown)
VH: RAHLVQSGTAMKKPGASVRVSCQTSGYTFTAHILFWFRQAPGRGLEWVGWIKPQYGAVNFGGGFRDRVTLTRDVYREIAYMDIRGLKPDDTAVYYCARGRSCCGGRRHCNGADCFNWALDAWGQGTTVVVSA
VL: YIHVTQSPSSLSVSIGDRVTINCQTSQGVGSDLHWYQHKPGRAPKLLIHHTSSVEDGVPSRFSGSGFHTSFNLTISDLQADDIATYYCQVLQFFGRGSRLHIK
For B7, the neutralisation IC50 with T250-4 (HIV-1) [8] is above 50 µg/mL; in assay [3] it was 1.4 µg/mL. This molecule came in with a neutralisation median IC50 in the assay with VRC01-resistant viruses [2] above 50 µg/mL.

B8: N6 GGG60-62ARPHC (antibody, V domains shown)
VH: RAHLVQSGTAMKKPGASVRVSCQTSGYTFTAHILFWFRQAPGRGLEWVGWIKPQYGAVNFARPFRDRVTLTRDVYREIAYMDIRGLKPDDTAVYYCARDRSYGDSSWALDAWGQGTTVVVSA
VL: YIHVTQSPSSLSVSIGDRVTINCQTSQGVGSDLHWYQHKPGRAPKLLIHHTSSVEDGVPSRFSGSGFHTSFNLTISDLQADDIATYYCQVLQFFGRGSRLHIK
Turning to B8, the neutralisation median IC50 in the assay with VRC01-resistant viruses [2] was determined as 0.248 µg/mL. In addition, the neutralisation IC50 in assay [3] stood at 0.15 µg/mL. In the assay with VRC01-resistant viruses [4], this molecule yielded a fold decrease in neutralization (IC50 of antibody mutant/IC50 of antibody WT) of 14 fold.

B9: N6 N17FRH1 (antibody, V domains shown)
VH: RAHLVQSGTAVKRPGASVRVSCETSGYTFTAHILFWFRQAPGRGLEWVGWIKPQYGAVNFGGGFRDRVTLTRDVYREIAYMDIRGLKPDDTAVYYCARDRSYGDSSWALDAWGQGTTVVVSA
VL: YIHVTQSPSSLSVSIGDRVTINCQTSQGVGSDLHWYQHKPGRAPKLLIHHTSSVEDGVPSRFSGSGFHTSFNLTISDLQADDIATYYCQVLQFFGRGSRLHIK
For the molecule B9, in the assay with VRC01-resistant viruses [6], the neutralisation fold change (IC50 mutant/IC50 WT) came out at 6 fold and the neutralisation median IC50 amounted to 0.111 µg/mL. The fold decrease in potency (IC50 of antibody mutant/IC50 of antibody WT) with VRC01-resistant viruses [4] was 5 fold.

B10: N6 VRC27FRH3 (antibody, V domains shown)
VH: RAHLVQSGTAMKKPGASVRVSCQTSGYTFTAHILFWFRQAPGRGLEWVGWIKPQYGAVNFGGGFRDRITLTRDIYRETAFLDLTGLRFDDTAVYYCARDRSYGDSSWALDAWGQGTTVVVSA
VL: YIHVTQSPSSLSVSIGDRVTINCQTSQGVGSDLHWYQHKPGRAPKLLIHHTSSVEDGVPSRFSGSGFHTSFNLTISDLQADDIATYYCQVLQFFGRGSRLHIK
Regarding B10, the neutralisation IC50 with 6631.V3.C10 (HIV-1) [5] was determined as 0.54 µg/mL; in assay [7], 0.509 µg/mL. For the same molecule, the neutralisation median IC50 in the assay with VRC01-resistant viruses [6] came out at 0.525 µg/mL.

B11: N6 VRC27CDRH3 (antibody, V domains shown)
VH: RAHLVQSGTAMKKPGASVRVSCQTSGYTFTAHILFWFRQAPGRGLEWVGWIKPQYGAVNFGGGFRDRVTLTRDVYREIAYMDIRGLKPDDTAVYYCARDRLYDGSSWRLDPWGQGTTVVVSA
VL: YIHVTQSPSSLSVSIGDRVTINCQTSQGVGSDLHWYQHKPGRAPKLLIHHTSSVEDGVPSRFSGSGFHTSFNLTISDLQADDIATYYCQVLQFFGRGSRLHIK
In the case of B11, in the assay with 6631.V3.C10 (HIV-1) [5], the neutralisation IC50 was 0.268 µg/mL. For the same molecule, in the assay with VRC01-resistant viruses [6], the neutralisation median IC50 was 0.167 µg/mL. In the assay with VRC01-resistant viruses [4], this molecule registered a fold decrease in neutralization (IC50 of antibody mutant/IC50 of antibody WT) of 10 fold.

B12: N6 N17FRH3 (antibody, V domains shown)
VH: RAHLVQSGTAMKKPGASVRVSCQTSGYTFTAHILFWFRQAPGRGLEWVGWIKPQYGAVNFGGGFRDRVTLTRDIYRDTAYMDISGLRFDDTAVYYCARDRSYGDSSWALDAWGQGTTVVVSA
VL: YIHVTQSPSSLSVSIGDRVTINCQTSQGVGSDLHWYQHKPGRAPKLLIHHTSSVEDGVPSRFSGSGFHTSFNLTISDLQADDIATYYCQVLQFFGRGSRLHIK
Regarding B12, in the assay with VRC01-resistant viruses [6], the neutralisation fold change (IC50 mutant/IC50 WT) is 10 fold and the neutralisation median IC50 turned out to be 0.18 µg/mL. This molecule had a neutralisation IC50 in [7] of 0.106 µg/mL. The molecule also registered a fold decrease in potency (IC50 of antibody mutant/IC50 of antibody WT) with VRC01-resistant viruses [4] of 7 fold.

B13: VRC01 (antibody, V domains shown)
VH: QVQLVQSGGQMKKPGESMRISCRASGYEFIDCTLNWIRLAPGKRPEWMGWLKPRGGAVNYARPLQGRVTMTRDVYSDTAFLELRSLTVDDTAVYFCTRGKNCDYNWDFEHWGRGTPVIVSS
VL: EIVLTQSPGTLSLSPGETAIISCRTSQYGSLAWYQQRPGQAPRLVIYSGSTRAAGIPDRFSGSRWGPDYNLTISNLESGDFGVYYCQQYEFFGQGTKVQVDIKR
In the assay with VRC01-resistant viruses [14], B13 yielded a neutralisation IC50 above 50 µg/mL and a neutralisation median IC50 above 50 µg/mL.

For the origin of these results see patent US20180298083A1.
